Test results as given in article PMC5418573.

How the values were obtained:
[1] = target: recombinant PolB1 of Sulfolobus solfataricus (Sulfolobus solfataricus) (UniProt P26811)
[2] = target: recombinant PolB1 of Sulfolobus solfataricus (Sulfolobus solfataricus) (UniProt P26811); assay: native MS; PolB1-HE complex at 4.2 μM in 50 mM ammonium acetate, nano ESI, Synapt G2S

Sequence of UniProt P26811 (P26811 36-882): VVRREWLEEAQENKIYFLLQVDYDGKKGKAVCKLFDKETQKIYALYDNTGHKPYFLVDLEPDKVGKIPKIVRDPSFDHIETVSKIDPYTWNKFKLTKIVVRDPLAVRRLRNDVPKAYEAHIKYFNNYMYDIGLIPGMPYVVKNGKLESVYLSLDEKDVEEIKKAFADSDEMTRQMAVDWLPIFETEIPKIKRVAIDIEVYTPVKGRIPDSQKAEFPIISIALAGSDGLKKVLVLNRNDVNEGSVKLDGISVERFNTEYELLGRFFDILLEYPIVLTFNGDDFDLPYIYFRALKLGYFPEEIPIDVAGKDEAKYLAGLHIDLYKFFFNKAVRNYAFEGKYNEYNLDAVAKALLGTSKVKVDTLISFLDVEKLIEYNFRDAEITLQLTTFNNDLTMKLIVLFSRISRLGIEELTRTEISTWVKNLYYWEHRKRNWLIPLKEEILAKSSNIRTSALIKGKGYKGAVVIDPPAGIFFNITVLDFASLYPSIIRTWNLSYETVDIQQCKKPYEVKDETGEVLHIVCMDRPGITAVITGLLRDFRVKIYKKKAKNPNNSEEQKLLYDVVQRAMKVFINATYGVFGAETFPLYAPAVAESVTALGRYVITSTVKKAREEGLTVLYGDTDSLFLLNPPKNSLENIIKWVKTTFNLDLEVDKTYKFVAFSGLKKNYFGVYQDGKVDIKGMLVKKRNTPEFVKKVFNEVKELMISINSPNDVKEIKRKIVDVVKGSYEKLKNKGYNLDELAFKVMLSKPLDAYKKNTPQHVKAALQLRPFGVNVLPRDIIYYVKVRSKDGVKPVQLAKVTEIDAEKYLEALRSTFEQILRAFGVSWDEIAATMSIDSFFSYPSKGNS

Row | Substance | kinetics of excision of the 3′ nucleotide (dGMP) [1] [fold] | stoichiometry N [2]
1 | PBP1ΔC, PBP1 C-terminal tail deletion mutant (from UniProt Q980X5 1-78) (domain or fragment) | 6 | –
2 | recombinant PBP1 of Sulfolobus solfataricus (SSO0150) (from UniProt Q980X5 1-118) (natural protein) | – | 1
3 | recombinant PBP2 of Sulfolobus solfataricus (SSO6202) (natural protein) | – | 1
